Experimental data taken from PMC11192940 (2024).

Molecular target: GST-Rheb protein (UniProt Q15382 1-169)
Experiment: BLI

Sequence of GST-Rheb protein (Q15382 1-169): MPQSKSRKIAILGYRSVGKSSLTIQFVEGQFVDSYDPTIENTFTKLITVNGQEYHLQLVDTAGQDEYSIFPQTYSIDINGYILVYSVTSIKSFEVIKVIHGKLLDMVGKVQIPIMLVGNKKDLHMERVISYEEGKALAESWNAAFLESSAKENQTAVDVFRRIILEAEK

B1: His-IL-37d, recombinant human IL-37d protein with a TAT peptide (pET-22b-TAT-his-IL-37d; mature IL-37d 21–197aa) (other)
chain: YGRKKRRQRRREPQCCLEGPKVKNLNPKKFSIHDQDHKVLVLDSGNLIAVPDKNYIRPEIFFALASSLSSASAEKGSPILLGVSKGEFCLYCDKDKGQSHPSLQLKKEKLMKLAAQKESARRPFIFYRAQVGSWNMLESAAHPGWFICTSCNCNEPVGVTDKFENRKHIEFSFQPVCKAEMSPSEVSD
B1 showed a koff of 0.00194 s⁻¹.
